Compound in series [1]: O=C(NNC(=S)Nc1ccc(Cl)c(Cl)c1)c1ccccc1O
The series can be described thus: Inhibition of Enterococcus faecalis JH2-2 C-terminal 6His-tagged DdlB expressed in Escherichia coli LMG194 assessed as Km of D-Ala at 1 uM by Biomol Green reagent assay (reference value: 5.62 mM).

Compound in series [2]: O=C(NNC(=S)Nc1ccc(Cl)c(Cl)c1)c1ccccc1O
The series is described as follows: Inhibition of Enterococcus faecalis JH2-2 C-terminal 6His-tagged DdlB expressed in Escherichia coli LMG194 assessed as Vmax of ATP at 1 uM by Biomol Green reagent assay (reference value: 89.05 +/- 5.41 microM/min).

Compound in series [3]: O=C(NNC(=S)Nc1ccc(Cl)c(Cl)c1)c1ccccc1O
The series is described as follows: Inhibition of Enterococcus faecalis JH2-2 C-terminal 6His-tagged DdlB expressed in Escherichia coli LMG194 assessed as Km1 of D-Ala using 500 uM ATP by Biomol Green reagent assay.

Compound in series [4]: O=C(NNC(=S)Nc1ccc(Cl)c(Cl)c1)c1ccccc1O
The series can be described thus: Inhibition of Enterococcus faecalis JH2-2 C-terminal 6His-tagged DdlB expressed in Escherichia coli LMG194 assessed as Km2 of D-Ala using 500 uM ATP by Biomol Green reagent assay.

Compound in series [5]: O=C(NNC(=S)Nc1ccc(Cl)c(Cl)c1)c1ccccc1O
The series is described as follows: Inhibition of Enterococcus faecalis JH2-2 C-terminal 6His-tagged DdlB expressed in Escherichia coli LMG194 assessed as Vmax of ATP at 10 uM by Biomol Green reagent assay (reference value: 89.05 +/- 5.41 microM/min).

Compound in series [6]: O=C(NNC(=S)Nc1ccc(Cl)c(Cl)c1)c1ccccc1O
The series can be described thus: Inhibition of Enterococcus faecalis JH2-2 C-terminal 6His-tagged DdlB expressed in Escherichia coli LMG194 assessed as Vmax of D-Ala at 1 uM by Biomol Green reagent assay (reference value: 61.95 +/- 1.11 microM/min).

Compound in series [7]: O=C(NNC(=S)Nc1ccc(Cl)c(Cl)c1)c1ccccc1O
The series can be described thus: Inhibition of Enterococcus faecalis JH2-2 C-terminal 6His-tagged DdlB expressed in Escherichia coli LMG194 assessed as Vmax of D-Ala at 10 uM by Biomol Green reagent assay (reference value: 61.95 +/- 1.11 microM/min).

Compound in series [8]: O=C(NNC(=S)Nc1ccc(Cl)c(Cl)c1)c1ccccc1O
The series can be described thus: Inhibition of Enterococcus faecalis JH2-2 C-terminal 6His-tagged DdlB expressed in Escherichia coli LMG194 assessed as Km of D-Ala at 10 uM by Biomol Green reagent assay (reference value: 5.62 mM).

Compound in series [9]: O=C(NNC(=S)Nc1ccc(Cl)c(Cl)c1)c1ccccc1O
The series can be described thus: Inhibition of Enterococcus faecalis JH2-2 C-terminal 6His-tagged DdlB expressed in Escherichia coli LMG194 assessed as Km of ATP using 50 mM D-Ala substrate by Biomol Green reagent assay.

Data on one protein can be found in ChEMBL document CHEMBL4382202, “1-(2-Hydroxybenzoyl)-thiosemicarbazides are promising antimicrobial agents targeting d-alanine-d-alanine ligase in bacterio” (Eur J Med Chem, 2018).

B1: D-alanine--D-alanine ligase (Enterococcus faecalis (strain ATCC 700802 / V583)), Q47758 (protein)
chain: MKIILLYGGRSEEHDVSVLSAYSVLNAIYYKYYQVQLVFISKDGQWVKGPLLSERPQNKEVLHLTWAQTPEETGEFSGKRISPSEIYEEEAIVFPVLHGPNGEDGTIQGFMETINMPYVGAGVLASANAMDKIMTKYLLQTVGIPQVPFVPVLRSDWKGNPKEVFEKCEGSLIYPVFVKPANMGSSVGISKVENREELQEALEEAFRYDARAIVEQGIEAREIEVAILGNEDVRTTLPGEVVKDVAFYDYDAKYINNTIEMQIPAHVPEEVAHQAQEYAKKAYIMLDGSGLSRCDFFLTSKNELFLNELNTMPGFTDFSMYPLLWENMGLKYSDLIEELIQLALNRFK
For B1, the Km worked out at 7.01 mM in series [1]; 0.487 mM in series [3]; 10.5 mM in series [4]; 9.63 mM in series [8]; 0.691 mM in series [9]. The maximal velocity (Vmax) was 72.1 µM/min in series [2], 23.5 µM/min in series [5], 48.6 µM/min in series [6] and 45.1 µM/min in series [7].
